Measured values published in patent publication US5200320A, “Method for identifying useful polypeptide vaccines” (National Jewish Center for Immunology and Respiratory …, priority 1987, dated 1993).
Ends that are not written are not given here.

How the values were obtained:
IA^d [1] = target: T1, IA^d (Mus musculus, UniProt P01921+P04228); conditions: amount of unlabelled Ova 323-339 divided by amount of truncated peptide needed to inhibit binding of 125I Ova 323-339 to IA^d by 50%; averages of 2-4 experiments; cited from earlier work
T1 sequence (P04228 24-256): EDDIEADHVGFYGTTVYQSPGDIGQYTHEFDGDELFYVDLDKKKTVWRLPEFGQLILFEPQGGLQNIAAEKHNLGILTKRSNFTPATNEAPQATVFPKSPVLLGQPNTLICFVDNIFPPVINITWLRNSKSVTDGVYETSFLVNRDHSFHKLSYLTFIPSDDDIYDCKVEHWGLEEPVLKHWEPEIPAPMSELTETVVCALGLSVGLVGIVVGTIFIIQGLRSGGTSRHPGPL
T1 sequence (P01921 28-265): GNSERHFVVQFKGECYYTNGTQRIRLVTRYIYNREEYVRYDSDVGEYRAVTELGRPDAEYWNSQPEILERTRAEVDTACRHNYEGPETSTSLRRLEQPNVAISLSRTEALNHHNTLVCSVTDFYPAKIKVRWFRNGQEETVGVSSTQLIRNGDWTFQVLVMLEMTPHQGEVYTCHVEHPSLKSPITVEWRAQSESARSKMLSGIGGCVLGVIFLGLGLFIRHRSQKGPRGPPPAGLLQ

IA^d [2] = target: T1, IA^d; test: Inhibition of binding of 125I-radiolabelled Ova 323-339 to purified IA^d (gel filtration competition assay); conditions: Table 7, good binders; concentration of the indicated polypeptide
Description: The following examples will illustrate the method of the present invention. First, a critical binding segment of a first polypeptide that binds to a first type of MHC, was ascertained. […] This was accomplished by the method described in Sette, et al, Nature, Vol. […] No. 6129, pp. 395-399, Jul. 30, 1987, the entirety of which is incorporated herein by reference. […] For convenience, Table I of that paper illustrating the foregoing procedure, is attached as Table 2.
The effect which the substitutions indicated by an "X" in Table III, had on the binding strength of the critical binding segment listed at the top of attached Table 4, was quantitatively calculated, and a numerical designation assigned to the substituting amino acid based upon the degree of that effect. The foregoing assigned numerical designations for each "X" position indicated in Table 3, is listed at corresponding positions in Table 4. The quantitative evaluations of the binding strength were made using a competition assay as described in Sette, et al, supra, and the numerals assigned according to the decrease in the binding activity as follows:
The value of "binding" listed in Tables 6 and 7, is in micromolar concentration of the indicated polypeptide. The assay used was the same as that in Sette et al, supra, for quatitative estimation of Ia peptide interaction.
In particular, as pointed out in Sette et al., supra, T-cell recognition is much less permissive than MHC recognition. […] However, as one would expect, when the binding strength of a polypeptide to an MHC types of an individual animal is poor, little or no immunogenic response would result. However, if a polypeptide is a good binder, as ascertained by the above method, then immunogenicity would be expected to be a possibility. […] Binding to a class II MHC type IA^d and IE^d (d strain of mouse) was evaluated using the same assay technique as used to evaluate the binding for the polypeptides in Tables 6 and 7 above.

Substance	Relative I-A^d binding capacity (IA^d [1])	further results
Ova peptide 327-339: N-terminal truncation of Ova 323-339, starting with V (AVHAAHAEINEAG; UniProt P01012 327-339, looked up, fragment)	0.3	–
SAESLKISQAV [Ova Site II]	–	IC50 (IA^d [2]): 5 µM
Ova peptide 329-339: N-terminal truncation of Ova 323-339, starting with A (HAAHAEINEAG; UniProt P01012 329-339, looked up, fragment)	< 0.005	–
HNTNGVTAACSHE [Ha 130-142]	–	IC50 (IA^d [2]): 9 µM
Ova peptide 328-339: N-terminal truncation of Ova 323-339, starting with H (VHAAHAEINEAG; UniProt P01012 328-339, looked up, fragment)	0.014	–
Ova peptide 323-332: C-terminal truncation of Ova 323-339, ending in A (KISQAVHAAH; UniProt P01012 323-332, looked up, fragment)	0.2	–
Ova peptide 326-339: N-terminal truncation of Ova 323-339, starting with A (QAVHAAHAEINEAG; UniProt P01012 326-339, looked up, fragment)	0.5	–
FISEAIIHVLHSR [Myo 106-118]	–	IC50 (IA^d [2]): 20 µM
Ova peptide 323-331: C-terminal truncation of Ova 323-339, ending in H (KISQAVHAA; UniProt P01012 323-331, looked up, fragment)	< 0.005	–
Ova peptide 325-339: N-terminal truncation of Ova 323-339, starting with Q (SQAVHAAHAEINEAG; UniProt P01012 325-339, looked up, fragment)	1.1	–
Ova peptide 323-336: C-terminal truncation of Ova 323-339, ending in E (KISQAVHAAHAEIN; UniProt P01012 323-336, looked up, fragment)	1.1	–
Ova peptide 323-335: C-terminal truncation of Ova 323-339, ending in N (KISQAVHAAHAEI; UniProt P01012 323-335, looked up, fragment)	1.0	–
APYTSTLLAPELSETP [HSVD 245-260]	–	BINDING (M) (IA^d [2]): 22/2
Ova peptide 323-333: C-terminal truncation of Ova 323-339, ending in E (KISQAVHAAHA; UniProt P01012 323-333, looked up, fragment)	0.6	–
AHRVQLGPRSLQVLLIP [JF 39]	–	IC50 (IA^d [2]): 25 µM
